US20230037911A1 (SHANGHAI HENLIUS BIOTECH, published 2023)
Residue numbers refer to the chain shown, from its start.

T1: recombinant human TIGIT extra cellular domain (ECD) protein (human, UniProt Q495A1 22-138)
T1 construct: Purchased protein; it begins with the signal peptide; also called h-TIGIT ECD; human TIGIT ECD
T1 sequence: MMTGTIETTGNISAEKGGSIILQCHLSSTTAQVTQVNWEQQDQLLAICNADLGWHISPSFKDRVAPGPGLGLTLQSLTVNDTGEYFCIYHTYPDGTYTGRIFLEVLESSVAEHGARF

T2: human TIGIT stably expressed on cells (Jurkat; 293T) (human, UniProt Q495A1 22-244)
T2 construct: the expression vector's insert is not described further; also called h-TIGIT; human TIGIT transfected Jurkat cells
T2 sequence: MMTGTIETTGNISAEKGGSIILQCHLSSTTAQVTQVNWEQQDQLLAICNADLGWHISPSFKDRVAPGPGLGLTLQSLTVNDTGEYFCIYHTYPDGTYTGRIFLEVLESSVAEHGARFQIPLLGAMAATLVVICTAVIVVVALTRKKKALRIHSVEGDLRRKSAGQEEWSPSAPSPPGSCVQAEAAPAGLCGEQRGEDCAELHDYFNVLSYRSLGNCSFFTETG

B1: 4H9 VHH (VHH)
VHH: QVQLVESGGGAVQAGGSLRLSCTASGPIARSRSTGMGWFRQGPGKERESVAAISSDGRFTYYAASVKGRFTISKDNAKSAAFLQMNSLKPEDTAVYYCAARDSGSGYYSRAQWYDYWGQGTQVTVSS
notes: VHH in bacterial supernatant
B2: 4C5 VHH (VHH)
VHH: QVQLVDSGGGLVQAGGSLRLSCAVSGRSVSTYFVGWFRQAPGKEREFVAAIDRGSTVTRYDDSVKGRFTISRDNAKDTVYLQMNSLKPEDTAVYYCAAKAITRNFIATNDYDYWGQGTQVTVSS
notes: VHH in bacterial supernatant
B3: 3H7 VHH (VHH)
VHH: QVKLEESGGGLVQAGGSLRLSCAASGSILSAGVMRWYRQAPGKQRELVASIALDGSTGYYIDSVKGRFTISRDNAKNIVYLDMRSLEPADTAVYLCNANIRTDMRSAPFDHWGHGTQVTVSS
notes: VHH in bacterial supernatant
B4: 4D5 VHH (VHH)
VHH: VDSGGGAVKAGDSLRLVCSAPGRTHGRAFNEYAMAWFRQGPGKERESVAAISSDGRFTYYAASVKGRFTISKDNAKSAAFLQMNSLKPEDTAVYYCAARDSGSGYYSRAQWYDYWGQGTQVTVSS
notes: VHH in bacterial supernatant
B5: 4D11 VHH (VHH)
VHH: QVQLQESGGGLVQPGGSLRLSCAASGSISSINAMGWYRLAPGKHREFVADITNSGSTNYAASVKGRFNISRDNAKDTVYLQMNSLKFEDTAVYYCTARRSTWYISSGRGTQVTVSS
notes: VHH in bacterial supernatant
B6: 4H6 VHH (VHH)
VHH: QVQLVESGGGLATAGASLILSCAASGTIFRLNRMGWFRQAPGKERERVAATIWSGRRTHYADSVKGRFTISTDNAKKTVYLRMSSLKPEDTAVYYCNYRRITPWEASGNYWGQGTQVTVSS
notes: VHH in bacterial supernatant
B7: 4A11 VHH (VHH)
VHH: QVKLEESGGGEAQPGGSLRLSCTASGRPFSNYTMGWFRRAPGKEREFVGLAWPSPSTYVVDSVKGRFTISRDNAKNTIYLQMNSLKPEDTAIYYCAADYKSLTQSWLNAALDYWGQGTQVTVSS
notes: VHH in bacterial supernatant
B8: 4C6 VHH (VHH)
VHH: QVQLVESGGGLVQAGGSLRLACAASGRTFSSYPMGWFRQGPGKERESVAAISSDGRFTYYAASVKGRFTISKDNAKSAAFLQMNSLKPEDTAVYRCAVDPTGWGTIEADFRSWGQGTQVTVSS
notes: VHH in bacterial supernatant
B9: 4B5 VHH (VHH)
VHH: QVKLEESGGRSVLAGGSLRLRCAGTPRTFSTFHIGWFRQAPGKEREFVAAFNWSGGRTYYADSVKGRFTISRNNGKNMVYLQMTSLTPEDTGLYYCAAARDRGLHDGTTSDSYLEGSHEYEYWGQGTQVTVSS
notes: VHH in bacterial supernatant
B10: 12H7 VHH (VHH)
VHH: QVQLVDSGGGLVQAGGSLRLSCKVSGNFLSVSDMSWYRQAPGMERDVVATVTEHGRTTYTDSVKGRFTISRDNAEHTTYLEMNNLKPEDTAVYFCKASDVFTDAGAHEAVLIRDYWGQGTQVTVSS
notes: VHH in bacterial supernatant
B11: 4E5 VHH (VHH)
VHH: QVQLVDSGGGVVEVGASLTLSCETSGLTSSDIAVGWFRQGPGKERESVAAISSDGRFTYYAASVKGRFTISKDNAKSAAFLQMNSLKPEDTAVYYCAARDSGSGYYSRAQWYDYWGQGTQVTVSS
notes: VHH in bacterial supernatant
B12: 1A10 VHH (VHH)
VHH: QVQLVESGGGVVQPGRSLRLSCAASGNSFSSYPMGWFRQAPGKERESVAAISSDGRFSYYADSVKGRFTISRDNSKNTLYLQMNSLRAEDTAVYYCACRDSGSGYYSRAQWYDYWGQGTLVTVSS
notes: VHH in bacterial supernatant
B13: 6D8 VHH (VHH)
VHH: B12 VHH with N27P, Y32K, I51R, S58T, C98A, Y105R
notes: VHH in bacterial supernatant
B14: 1C7 VHH (VHH)
VHH: B12 VHH with N27P, D54R, S58T, C98A, D100G
notes: VHH in bacterial supernatant
B15: 5E8 VHH (VHH)
VHH: B12 VHH with N27P, I51Q, S58T, C98A
notes: VHH in bacterial supernatant
B16: 5B5 VHH (VHH)
VHH: B12 VHH with N27P, G55T, S58T, C98A, Y114R
notes: VHH in bacterial supernatant
B17: 5G10 VHH (VHH)
VHH: B12 VHH with N27P, S28R, S58T, C98A, Y114G
notes: VHH in bacterial supernatant
B18: 7B11 VHH (VHH)
VHH: B12 VHH with N27P, S30L, S31I, S58W, C98A, A109V
notes: VHH in bacterial supernatant
B19: 6D12 VHH (VHH)
VHH: B12 VHH with N27P, S31T, R56V, S58T, C98A, A109E
notes: VHH in bacterial supernatant
B20: 2A6 VHH (VHH)
VHH: B12 VHH with N27P, S31L, G55R, S58T, C98A
notes: VHH in bacterial supernatant
B21: 6B11 VHH (VHH)
VHH: B12 VHH with N27P, S30P, D54R, S58T, C98A, A109L
notes: VHH in bacterial supernatant
B22: 1D11 VHH (VHH)
VHH: B12 VHH with N27P, Y32S, D54M, S58T, C98A
notes: VHH in bacterial supernatant
B23: 2A5 VHH (VHH)
VHH: B12 VHH with N27P, D54V, S58T, C98A, A109W
notes: VHH in bacterial supernatant
B24: 2C5 VHH (VHH)
VHH: B12 VHH with N27P, S31T, D54Q, S58T, C98A
notes: VHH in bacterial supernatant
B25: 6E9 VHH (VHH)
VHH: B12 VHH with N27P, F29R, R56K, S58T, C98A, Q110N
notes: VHH in bacterial supernatant
B26: 2D5 VHH (VHH)
VHH: B12 VHH with N27P, Y32S, S53W, S58T, C98A, D113V
notes: VHH in bacterial supernatant
B27: 3G6 VHH (VHH)
VHH: QVQLVESGGGLVQAGGSLSLSCAASGSIFGISVMGWYRQAPGEQRDLVATLTRAGLTTYGDSVKGRFSISRDSAKNTVYLQMNNLKPEDTAVYYCHANIMESAASTFGRYWGQGTQVTVSS
notes: VHH in bacterial supernatant
B28: 3F10 VHH (VHH)
VHH: QVQLVESGGGLVQAGGSLRLSCASSEHTFSNFPMGWFRQAPGKERNVVAAIDSSGRLTYYADSVKGRFTISKDNAKSTVYLQMNSLKSEDTARYYCAARTGGVGYYSRSSFYNYWGQGTLVTVSS
notes: VHH in bacterial supernatant
B29: 3G7 VHH (VHH)
VHH: B7 VHH with K3Q, E5V, E11L, A12V, P14A, G16D, T23E, P28T, F29L, N31T
notes: VHH in bacterial supernatant
B30: 2B10 VHH (VHH)
VHH: QVKLEESGGGLVQTGDSLRLSCAASSRIFRRYAMGWFRQAPGKEREFVAAITWSGASTTYTDSVKGRFTISRDSAENTTYLQMTSLRPEDTAVYYCAADPWGSVIVGTAEYEYWGQGTLVTVSS
notes: VHH in bacterial supernatant
B31: 1C12 VHH (VHH)
VHH: QVQLVESGGGLVQTGDSLRLSCAASSRIFSRYGMGWFRQAPGKEREFVAAISWNGASTTYTDSVKGRFTISRDSAENTTYLQINSLRPEDTAVYYCAADPWGAVKLGTAEYEYWGQGTQVTVSS
notes: VHH in bacterial supernatant
B32: 13H11 VHH (VHH)
VHH: QVQLVESGGGLVQAGGSLRLSCAASGLTFSMYAMGWFRQGPGKERESVAAISSDGRFTYYAASVKGRFTISKDNAKSAAFLQMNSLKPEDTAVYYCAARDSGSGYYSRAQWYDYWGQGTQVTVSS
notes: VHH in bacterial supernatant
B33: 1G1 VHH (VHH)
VHH: B32 VHH with G16D, A23V, L27P, T28S, M31S, A33P, Q120L
notes: VHH in bacterial supernatant
B34: 2B7 VHH (VHH)
VHH: B32 VHH with S21A, L27R, M31S, A33P
notes: VHH in bacterial supernatant

These binders were tested against T1, recombinant human TIGIT extra cellular … (assay: ELISA, VHH in supernatant on h-TIGIT ECD coated plates).

Row | Binder | binding result
1 | B1 | binds
2 | B2 | binds
3 | B3 | binds
4 | B4 | binds
5 | B5 | binds
6 | B6 | binds
7 | B7 | binds
8 | B8 | binds
9 | B9 | binds
10 | B10 | binds
11 | B11 | binds

The binders below were run against T1, recombinant human TIGIT extra cellular … (assay: PVR blocking ELISA (PVR binding to h-TIGIT blocked by the clone); scatter of IC50 against EC50, nM per the legend).

Row | Binder | binding result
12 | B12 | binds
13 | B13 | binds
14 | B14 | binds
15 | B15 | binds
16 | B16 | binds
17 | B17 | binds
18 | B18 | binds
19 | B19 | binds
20 | B20 | binds
21 | B21 | binds
22 | B22 | binds
23 | B23 | binds
24 | B24 | binds
25 | B25 | binds
26 | B26 | binds

The binders below were run against T2, human TIGIT stably expressed on cells … (assay: whole cell binding on TIGIT stable cells (species not named in the legend, taken as human); scatter of EC50 against IC50, nM per the legend).

Row | Binder | binding result
27 | B12 | binds
28 | B13 | binds
29 | B14 | binds
30 | B15 | binds
31 | B16 | binds
32 | B17 | binds
33 | B18 | binds
34 | B19 | binds
35 | B20 | binds
36 | B21 | binds
37 | B22 | binds
38 | B23 | binds
39 | B24 | binds
40 | B25 | binds
41 | B26 | binds

What follows are binders tested against T1, recombinant human TIGIT extra cellular … (assay: blocking ELISA, PVR as competitor).

Row | Binder | inhibition of PVR binding to h-TIGIT
42 | B27 | > 90%
43 | B28 | > 90%
44 | B29 | > 90%
45 | B30 | > 90%
46 | B31 | > 90%
47 | B32 | > 90%
48 | B33 | > 90%
49 | B34 | > 90%
